# Source: patent publication US20050256058A1 (GEORGIA TECH RESEARCH, published 2005)
# Numbered stars: 1 amine (or outer) side, 2 acyl side, 3 side chain; on linkers, the order of the positions; unused ones are H or OH. Square brackets hold non-standard residues; d marks the D form. * marks the point of attachment. CH═CH‑CON(CH3)CH2CH2Ph = CN(CCc1ccccc1)C(=O)/C=C/*; AAsp = aza-Asp, O=C(N(CC(=O)[*:3])N[*:1])[*:2]; CH═CH‑CON(CH3)CH2Ph = CN(Cc1ccccc1)C(=O)/C=C/*; CH═CH‑COOCH2Ph = O=C(/C=C/*)OCc1ccccc1; CH═CH‑COOEt = CCOC(=O)/C=C/*; Cbz = O=C(OCc1ccccc1)*
# T1: Caspase-2 (UniProt P42575 170-452, limits assumed)
# T1 sequence (looked up): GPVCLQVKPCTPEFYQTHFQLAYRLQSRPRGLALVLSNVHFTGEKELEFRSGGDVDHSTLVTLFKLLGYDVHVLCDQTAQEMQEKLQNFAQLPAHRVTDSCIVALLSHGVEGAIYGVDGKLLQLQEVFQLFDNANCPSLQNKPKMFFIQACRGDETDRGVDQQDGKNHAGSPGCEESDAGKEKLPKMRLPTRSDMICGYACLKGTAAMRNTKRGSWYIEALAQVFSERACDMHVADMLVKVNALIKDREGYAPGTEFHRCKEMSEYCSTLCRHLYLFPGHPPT
# T2: Caspase-3 (UniProt P42574 29-277)
# T2 sequence (looked up): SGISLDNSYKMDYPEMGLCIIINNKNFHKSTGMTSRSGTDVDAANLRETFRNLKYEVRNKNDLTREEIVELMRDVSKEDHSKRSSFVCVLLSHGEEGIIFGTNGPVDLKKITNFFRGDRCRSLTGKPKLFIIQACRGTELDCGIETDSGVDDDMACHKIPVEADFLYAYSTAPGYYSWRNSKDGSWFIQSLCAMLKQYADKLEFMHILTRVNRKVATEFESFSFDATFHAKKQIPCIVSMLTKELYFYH
# T3: Caspase-6 (UniProt P55212 24-293, limits assumed)
# T3 sequence (looked up): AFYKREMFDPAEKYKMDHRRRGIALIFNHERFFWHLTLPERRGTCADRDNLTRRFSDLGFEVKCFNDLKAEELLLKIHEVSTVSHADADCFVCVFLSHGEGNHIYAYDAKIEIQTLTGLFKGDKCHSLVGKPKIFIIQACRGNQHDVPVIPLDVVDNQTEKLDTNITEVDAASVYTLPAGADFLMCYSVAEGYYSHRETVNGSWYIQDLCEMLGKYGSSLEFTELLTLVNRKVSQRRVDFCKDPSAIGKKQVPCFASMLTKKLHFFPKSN
# T4: Caspase-7 (UniProt P55210 24-303)
# T4 sequence (looked up): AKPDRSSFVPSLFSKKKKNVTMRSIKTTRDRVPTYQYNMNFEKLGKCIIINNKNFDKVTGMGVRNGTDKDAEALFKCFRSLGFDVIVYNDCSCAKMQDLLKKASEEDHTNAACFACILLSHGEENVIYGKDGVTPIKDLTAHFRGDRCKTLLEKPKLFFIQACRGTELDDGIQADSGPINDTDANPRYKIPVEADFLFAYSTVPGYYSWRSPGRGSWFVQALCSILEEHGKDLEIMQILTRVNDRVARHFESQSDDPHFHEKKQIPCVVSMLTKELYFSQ
# T5: Caspase-10 (UniProt Q92851 220-521, limits assumed)
# T5 sequence (looked up): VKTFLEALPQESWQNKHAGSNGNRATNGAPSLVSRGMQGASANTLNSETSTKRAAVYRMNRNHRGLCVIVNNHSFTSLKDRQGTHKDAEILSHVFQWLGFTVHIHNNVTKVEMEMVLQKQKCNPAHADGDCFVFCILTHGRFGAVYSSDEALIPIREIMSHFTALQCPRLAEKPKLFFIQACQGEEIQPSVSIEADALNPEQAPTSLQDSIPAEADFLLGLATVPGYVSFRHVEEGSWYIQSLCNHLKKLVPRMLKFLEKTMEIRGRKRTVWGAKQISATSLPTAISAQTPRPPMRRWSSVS
# T6: Caspase-9 (UniProt P55211 1-416, limits assumed)
# T6 sequence (looked up): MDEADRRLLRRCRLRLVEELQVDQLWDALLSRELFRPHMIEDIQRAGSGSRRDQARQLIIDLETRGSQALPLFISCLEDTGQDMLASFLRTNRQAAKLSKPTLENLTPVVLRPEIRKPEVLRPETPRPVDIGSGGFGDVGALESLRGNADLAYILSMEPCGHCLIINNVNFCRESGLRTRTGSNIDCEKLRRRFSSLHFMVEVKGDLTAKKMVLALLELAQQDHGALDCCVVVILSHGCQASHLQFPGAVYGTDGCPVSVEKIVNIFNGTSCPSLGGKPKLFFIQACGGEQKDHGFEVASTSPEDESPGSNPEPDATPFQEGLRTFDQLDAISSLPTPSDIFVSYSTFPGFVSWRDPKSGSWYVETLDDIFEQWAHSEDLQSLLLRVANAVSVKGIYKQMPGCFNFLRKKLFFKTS
# Tests used:
# Experiment in all cases: cell-based or functional assay
# [1] = target: T1, Caspase-2
# [2] = target: T2, Caspase-3
# [3] = target: T3, Caspase-6
# [4] = target: T4, Caspase-7
# [5] = target: Caspase-8 (UniProt Q14790 217-479)
# [6] = target: T5, Caspase-10
# [7] = target: T6, Caspase-9
# Sequence of Caspase-8 (Q14790 217-479 limits assumed): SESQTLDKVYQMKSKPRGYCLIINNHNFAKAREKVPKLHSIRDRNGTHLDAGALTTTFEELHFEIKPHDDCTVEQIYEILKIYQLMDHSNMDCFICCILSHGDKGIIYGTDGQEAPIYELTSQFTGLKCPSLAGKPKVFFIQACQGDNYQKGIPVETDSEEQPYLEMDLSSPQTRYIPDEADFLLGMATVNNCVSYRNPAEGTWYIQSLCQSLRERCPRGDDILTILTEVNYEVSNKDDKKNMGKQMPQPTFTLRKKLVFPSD
binder,measurement,setting,value
Cbz-DEV[AAsp]-{CH═CH‑COPh} [Cbz-Asp-Glu-Val-AAsp-CH═CH-COPh],k2,[1],165 M⁻¹ s⁻¹
same,k2,[2],122000 M⁻¹ s⁻¹
same,k2,[3],1800 M⁻¹ s⁻¹
same,k2,[4],10800 M⁻¹ s⁻¹
same,k2,[5],9720 M⁻¹ s⁻¹
same,k2,[6],930 M⁻¹ s⁻¹
Cbz-DEV[AAsp]-{CH═CH‑CON(CH3)CH2CH2Ph} (SMILES CC(C)[C@H](NC(=O)[C@H](CCC(=O)O)NC(=O)[C@H](CC(=O)O)NC(=O)OCc1ccccc1)C(=O)NN(CC(=O)O)C(=O)/C=C/C(=O)N(C)CCc1ccccc1) [Cbz-Asp-Glu-Val-AAsp-CH═CH-CON(CH3)CH2CH2Ph],k2,[1],320 M⁻¹ s⁻¹
same,k2,[2],1.18e+06 M⁻¹ s⁻¹
same,k2,[3],4000 M⁻¹ s⁻¹
same,k2,[4],172000 M⁻¹ s⁻¹
same,k2,[5],31900 M⁻¹ s⁻¹
same,k2,[7],425 M⁻¹ s⁻¹
same,k2,[6],9570 M⁻¹ s⁻¹
Cbz-Val-[AAsp]-{CH═CH‑Cl} (also: cis isomer) [Cbz-Val-AAsp-CH═CH-Cl],k2,[7],15 M⁻¹ s⁻¹
Cbz-LET[AAsp]-{CH═CH‑CONHCH2‑4‑F‑Ph} [Cbz-Leu-Glu-Thr-AAsp-CH═CH-CONHCH2-4-F-Ph],k2,[1],70 M⁻¹ s⁻¹
same,k2,[2],4490 M⁻¹ s⁻¹
same,k2,[3],3100 M⁻¹ s⁻¹
same,k2,[4],410 M⁻¹ s⁻¹
same,k2,[5],171000 M⁻¹ s⁻¹
same,k2,[7],1700 M⁻¹ s⁻¹
same,k2,[6],9380 M⁻¹ s⁻¹
Cbz-LET[AAsp]-{CH═CH‑CONHPh} [Cbz-Leu-Glu-Thr-AAsp-CH═CH-CONHPh],k2,[1],290 M⁻¹ s⁻¹
same,k2,[2],4700 M⁻¹ s⁻¹
same,k2,[3],11400 M⁻¹ s⁻¹
same,k2,[4],730 M⁻¹ s⁻¹
same,k2,[5],176000 M⁻¹ s⁻¹
same,k2,[7],1190 M⁻¹ s⁻¹
same,k2,[6],6050 M⁻¹ s⁻¹
Cbz-Val-[AAsp]-{CH═CH‑COOEt} [Cbz-Val-AAsp-CH═CH-COOEt],k2,[2],8000 M⁻¹ s⁻¹
same,k2,[4],2680 M⁻¹ s⁻¹
same,k2,[7],5240 M⁻¹ s⁻¹
same,k2,[6],389 M⁻¹ s⁻¹
Cbz-DEV[AAsp]-{CH═CH‑CON(CH2-1-Napth)2} [Cbz-Asp-Glu-Val-AAsp-CH═CH-CON(CH2-1-Napth)2],k2,[1],410 M⁻¹ s⁻¹
same,k2,[2],5.62e+06 M⁻¹ s⁻¹
same,k2,[3],29700 M⁻¹ s⁻¹
same,k2,[4],875000 M⁻¹ s⁻¹
same,k2,[5],9460 M⁻¹ s⁻¹
same,k2,[7],150 M⁻¹ s⁻¹
same,k2,[6],32500 M⁻¹ s⁻¹
Cbz-Glu-Val-[AAsp]-{CH═CH‑COOEt} (SMILES CCOC(=O)/C=C/C(=O)N(CC(=O)O)NC(=O)[C@@H](NC(=O)[C@H](CCC(=O)O)NC(=O)OCc1ccccc1)C(C)C) [Cbz-Glu-Val-AAsp-CH═CH-COOEt],k2,[1],90 M⁻¹ s⁻¹
same,k2,[2],38600 M⁻¹ s⁻¹
same,k2,[3],3540 M⁻¹ s⁻¹
same,k2,[4],52400 M⁻¹ s⁻¹
same,k2,[6],8940 M⁻¹ s⁻¹
Cbz-DEV[AAsp]-{cis‑CH═CH‑COOEt} [Cbz-Asp-Glu-Val-AAsp-CH═CH-COOEt (cis)],k2,[1],26200 M⁻¹ s⁻¹
same,k2,[2],1.06e+06 M⁻¹ s⁻¹
same,k2,[3],11000 M⁻¹ s⁻¹
same,k2,[4],139000 M⁻¹ s⁻¹
same,k2,[5],181000 M⁻¹ s⁻¹
same,k2,[6],13500 M⁻¹ s⁻¹
Cbz-Val-[AAsp]-{CH═CH‑4‑Cl‑Ph} [Cbz-Val-AAsp-CH═CH-4-Cl-Ph],k2,[7],19 M⁻¹ s⁻¹
Cbz-DEV[AAsp]-{CH═CH‑CON(CH3)CH2Ph} (SMILES CC(C)[C@H](NC(=O)[C@H](CCC(=O)O)NC(=O)[C@H](CC(=O)O)NC(=O)OCc1ccccc1)C(=O)NN(CC(=O)O)C(=O)/C=C/C(=O)N(C)Cc1ccccc1) [Cbz-Asp-Glu-Val-AAsp-CH═CH-CON(CH3)CH2Ph],k2,[1],660 M⁻¹ s⁻¹
same,k2,[2],2.64e+06 M⁻¹ s⁻¹
same,k2,[3],9500 M⁻¹ s⁻¹
same,k2,[4],275000 M⁻¹ s⁻¹
same,k2,[5],90300 M⁻¹ s⁻¹
same,k2,[7],820 M⁻¹ s⁻¹
same,k2,[6],29400 M⁻¹ s⁻¹
Cbz-LET[AAsp]-{CH═CH‑CON(CH3)CH2Ph} (SMILES CC(C)C[C@H](NC(=O)OCc1ccccc1)C(=O)N[C@@H](CCC(=O)O)C(=O)N[C@H](C(=O)NN(CC(=O)O)C(=O)/C=C/C(=O)N(C)Cc1ccccc1)[C@@H](C)O) [Cbz-Leu-Glu-Thr-AAsp-CH═CH-CON(CH3)CH2Ph],k2,[1],140 M⁻¹ s⁻¹
same,k2,[2],6000 M⁻¹ s⁻¹
same,k2,[3],10800 M⁻¹ s⁻¹
same,k2,[4],520 M⁻¹ s⁻¹
same,k2,[5],169000 M⁻¹ s⁻¹
same,k2,[7],4320 M⁻¹ s⁻¹
same,k2,[6],8430 M⁻¹ s⁻¹
Cbz-DEV[AAsp]-{CH═CH‑CO‑tetrahydroquinoline} [Cbz-Asp-Glu-Val-AAsp-CH═CH-CON-tetrahydroquinoline],k2,[1],390 M⁻¹ s⁻¹
same,k2,[2],2.3e+06 M⁻¹ s⁻¹
same,k2,[3],5700 M⁻¹ s⁻¹
same,k2,[4],137000 M⁻¹ s⁻¹
same,k2,[5],118000 M⁻¹ s⁻¹
same,k2,[7],340 M⁻¹ s⁻¹
same,k2,[6],8330 M⁻¹ s⁻¹
Cbz-LET[AAsp]-{CH═CH‑CONHCH2Ph} [Cbz-Leu-Glu-Thr-AAsp-CH═CH-CONHCH2Ph],k2,[1],66 M⁻¹ s⁻¹
same,k2,[2],1120 M⁻¹ s⁻¹
same,k2,[3],1550 M⁻¹ s⁻¹
same,k2,[4],340 M⁻¹ s⁻¹
same,k2,[5],70200 M⁻¹ s⁻¹
same,k2,[7],1400 M⁻¹ s⁻¹
same,k2,[6],14400 M⁻¹ s⁻¹
Cbz-LET[AAsp]-{CH═CH‑COOCH2Ph} (SMILES CC(C)C[C@H](NC(=O)OCc1ccccc1)C(=O)N[C@@H](CCC(=O)O)C(=O)N[C@H](C(=O)NN(CC(=O)O)C(=O)/C=C/C(=O)OCc1ccccc1)[C@@H](C)O) [Cbz-Leu-Glu-Thr-AAsp-CH═CH-COOCH2Ph],k2,[1],480 M⁻¹ s⁻¹
same,k2,[2],4600 M⁻¹ s⁻¹
same,k2,[3],47600 M⁻¹ s⁻¹
same,k2,[4],1570 M⁻¹ s⁻¹
same,k2,[5],98400 M⁻¹ s⁻¹
same,k2,[6],18900 M⁻¹ s⁻¹
Cbz-DEV[AAsp]-{CH═CH‑CONHCH2‑4‑F‑Ph} [Cbz-Asp-Glu-Val-AAsp-CH═CH-CONHCH2-4-F-Ph],k2,[2],2.1e+06 M⁻¹ s⁻¹
same,k2,[3],4400 M⁻¹ s⁻¹
same,k2,[4],329000 M⁻¹ s⁻¹
same,k2,[5],85100 M⁻¹ s⁻¹
same,k2,[7],900 M⁻¹ s⁻¹
same,k2,[6],37700 M⁻¹ s⁻¹
Cbz-LET[AAsp]-{CH═CH‑CONHCH2CH2Ph} [Cbz-Leu-Glu-Thr-AAsp-CH═CH-CONHCH2CH2Ph],k2,[1],110 M⁻¹ s⁻¹
same,k2,[2],5400 M⁻¹ s⁻¹
same,k2,[3],2150 M⁻¹ s⁻¹
same,k2,[4],440 M⁻¹ s⁻¹
same,k2,[5],121000 M⁻¹ s⁻¹
same,k2,[7],1760 M⁻¹ s⁻¹
same,k2,[6],17900 M⁻¹ s⁻¹
Cbz-LET[AAsp]-{CH═CH‑CON(CH3)CH2CH2Ph} (SMILES CC(C)C[C@H](NC(=O)OCc1ccccc1)C(=O)N[C@@H](CCC(=O)O)C(=O)N[C@H](C(=O)NN(CC(=O)O)C(=O)/C=C/C(=O)N(C)CCc1ccccc1)[C@@H](C)O) [Cbz-Leu-Glu-Thr-AAsp-CH═CH-CON(CH3)CH2CH2Ph],k2,[1],50 M⁻¹ s⁻¹
same,k2,[2],2620 M⁻¹ s⁻¹
same,k2,[3],2550 M⁻¹ s⁻¹
same,k2,[4],290 M⁻¹ s⁻¹
same,k2,[5],65300 M⁻¹ s⁻¹
same,k2,[7],960 M⁻¹ s⁻¹
same,k2,[6],6190 M⁻¹ s⁻¹
Cbz-Val-[AAsp]-{CH═CH‑CH═CH‑CH3} [Cbz-Val-AAsp-CH═CH-CH═CH-CH3],k2,[4],56 M⁻¹ s⁻¹
Cbz-Val-[AAsp]-{CH═CH‑CONHCH2Ph} [Cbz-Val-AAsp-CH═CH-CONHCH2Ph],k2,[2],185 M⁻¹ s⁻¹
same,k2,[4],60 M⁻¹ s⁻¹
same,k2,[7],20 M⁻¹ s⁻¹
Cbz-Val-[AAsp]-{CH═CH‑CONH‑nBu} [Cbz-Val-AAsp-CH═CH-CONH-nBu],k2,[2],184 M⁻¹ s⁻¹
same,k2,[4],55 M⁻¹ s⁻¹
same,k2,[7],32 M⁻¹ s⁻¹
